Laboratory results published in PMC8316464, “Structures of the ApoL1 and ApoL2 N-terminal domains reveal a non-classical four-helix bundle motif” (Communications Biology, 2021).
Values belong to the binder of their own block, whether it stands above or below them.

Columns and labels:
ApoL4-Myc = biological target: T1, ApoL4-Myc (Homo sapiens, UniProt Q9BPW4); assay: immunostaining of cells or tissue; transiently transfected COS7 cells fixed (3% paraformaldehyde) and permeabilized (0.1% Triton-X-100); mouse anti-ApoL1 antibodies at 2 µg/ml in PBS, 1 h, room temperature; Alexa488-anti-mouse; co-stained with anti-myc; details: one partner purified
T1 construct: Apolipoprotein L4, human; The homology model (not this construct) used isoform 2, NP_663693; source: COS7, transiently transfected; in lysate (immunoprecipitation) or in fixed, permeabilized cells (immunofluorescence); not shown: Myc, C-terminal, kept

[1] = biological target: T2, human untagged ApoL2 expressed in COS7 cells (Homo sapiens, UniProt Q9BQE5); assay: immunoprecipitation; 20 µg antibody pre-immobilised on Dynabeads Protein G, incubated 20 min at RT with M-PER lysates of cells expressing ApoL1-6 (35 µg total protein for ApoL1-3, 500 µg for ApoL4-6); four washes PBS/0.02% Tween-20; blot with anti-ApoL1/2 or anti-Myc; details: one partner purified
T2 construct: Apolipoprotein L2, human, untagged; source: COS7, transiently transfected; in lysate (immunoprecipitation) or in fixed, permeabilized cells (immunofluorescence)

ApoL3-Myc-Flag = biological target: T3, ApoL3-Myc-Flag (Homo sapiens, UniProt O95236); assay: as above; details: one partner purified
T3 construct: Apolipoprotein L3, human; The homology model (not this construct) used isoform 1, NP_663615.1; source: COS7, transiently transfected; in lysate (immunoprecipitation) or in fixed, permeabilized cells (immunofluorescence); not shown: Myc, C-terminal, kept; FLAG, C-terminal, kept

[2] = biological target: T4, full-length ApoL1 with N-terminal flag-tag (human, UniProt O14791-1); assay: SPR; Biacore T200; anti-ApoL1 antibodies captured (~250 RU) by anti-murine Fc antibody on a CM5 chip; ApoL1 0.8–500 nM injected in HBS-P (10 mM HEPES pH 7.4, 150 mM NaCl, 0.005% P20) at 37 °C, 100 µl/min; 1:1 Langmuir model; KD = koff/kon; details: both partners purified
T4 construct: also called Apolipoprotein L1; not shown: FLAG, N-terminal, kept

[3] = biological target: T5, ApoL2-NTD (N2-T113), His tag removed (human, UniProt Q9BQE5); assay: crystal structure; Fab complexes formed with 1.5 molar excess of NTD and purified on Superdex-200 in 0.15 M NaCl, 25 mM Tris pH 8.0, about 10 mg/ml; Fab7D6 also crystallised with the synthetic peptide E152–H169; details: both partners purified
T5 construct: Apolipoprotein L2, human, N-terminal domain residues N2-T113, Genbank NP_112092.2; source: Sf9 insect cells (baculovirus), purified (Ni resin, S75, TEV digestion, S75)

Bcl-w = biological target: T6, Bcl-w (human, UniProt Q92843 1-193); assay: SPR; Biacore S200; Bcl-2 family proteins immobilised on CM5 (amine coupling or His-Capture Kit); peptides and flag-tagged proteins as analytes, single-cycle kinetics, HBS-EP, 25 °C; 1:1 Langmuir model; absence of binding probed at 100 nM and 3 µM; details: both partners purified
T6 construct: Bcl-w, human recombinant; source: bought: R&D Systems
T6 sequence (looked up): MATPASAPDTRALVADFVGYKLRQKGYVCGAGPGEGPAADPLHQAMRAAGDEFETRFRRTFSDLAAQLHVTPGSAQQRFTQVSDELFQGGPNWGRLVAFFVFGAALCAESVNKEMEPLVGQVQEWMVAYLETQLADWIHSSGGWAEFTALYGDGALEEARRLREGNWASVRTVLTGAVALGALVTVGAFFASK

Bfl-1 = biological target: T7, Bfl-1 (human, UniProt Q16548 1-175); assay: as above; details: both partners purified
T7 construct: Bfl-1 (Bcl-2-related protein A1), human recombinant; also called Bcl-2-related protein A1; source: bought: R&D Systems
T7 sequence (looked up): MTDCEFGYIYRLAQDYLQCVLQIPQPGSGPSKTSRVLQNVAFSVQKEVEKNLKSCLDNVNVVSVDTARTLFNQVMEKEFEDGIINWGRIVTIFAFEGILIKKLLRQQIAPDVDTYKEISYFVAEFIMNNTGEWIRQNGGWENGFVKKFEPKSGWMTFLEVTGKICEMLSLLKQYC

[4] = biological target: T8, ApoL1-peptide (BH3-like peptide E152–H169) (human, UniProt O14791); assay: crystal structure; Fab complexes formed with 1.5 molar excess of NTD and purified on Superdex-200 in 0.15 M NaCl, 25 mM Tris pH 8.0, about 10 mg/ml; Fab7D6 also crystallised with the synthetic peptide E152–H169; details: both partners purified
T8 construct: Apolipoprotein L1, human, residues E152-H169; also called ApoL1-BH3 peptide; BH3 peptide; source: synthetic peptide (NEO Scientific)
T8 chain: EDNIRRLRALADGVQKVH

[5] = biological target: T9, flag-tagged ApoL1-NTD (D61–T172) (human, UniProt O14791); assay: SEC-MALS; XBridge BEH 200 Å column in PBS, 0.02% sodium azide, 1 ml/min; complex formed with a twofold molar excess of ApoL1-NTD (46.8 µM) over Fab7D6, 30 min at room temperature; components also run alone; details: both partners purified
T9 construct: Apolipoprotein L1, human, N-terminal domain residues D61-T172; E150 variant; the tag is said to be removed only for X-ray studies; source: Sf9 insect cells (baculovirus), purified (anti-flag resin, S75 size exclusion)
T9 sequence (O14791 61-172): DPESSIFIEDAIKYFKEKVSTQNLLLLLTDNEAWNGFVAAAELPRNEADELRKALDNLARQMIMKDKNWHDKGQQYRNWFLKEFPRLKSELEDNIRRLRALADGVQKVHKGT

T4 sequence (O14791 28-398): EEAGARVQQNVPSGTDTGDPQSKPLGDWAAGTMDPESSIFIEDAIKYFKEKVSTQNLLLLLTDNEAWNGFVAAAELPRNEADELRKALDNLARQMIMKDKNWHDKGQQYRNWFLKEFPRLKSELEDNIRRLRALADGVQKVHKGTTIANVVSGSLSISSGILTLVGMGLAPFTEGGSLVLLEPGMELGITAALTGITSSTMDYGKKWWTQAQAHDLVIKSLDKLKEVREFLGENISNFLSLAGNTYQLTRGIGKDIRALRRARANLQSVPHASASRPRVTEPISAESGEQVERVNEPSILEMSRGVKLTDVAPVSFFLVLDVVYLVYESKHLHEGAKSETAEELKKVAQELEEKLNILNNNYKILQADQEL
T2 sequence (Q9BQE5 whole entry): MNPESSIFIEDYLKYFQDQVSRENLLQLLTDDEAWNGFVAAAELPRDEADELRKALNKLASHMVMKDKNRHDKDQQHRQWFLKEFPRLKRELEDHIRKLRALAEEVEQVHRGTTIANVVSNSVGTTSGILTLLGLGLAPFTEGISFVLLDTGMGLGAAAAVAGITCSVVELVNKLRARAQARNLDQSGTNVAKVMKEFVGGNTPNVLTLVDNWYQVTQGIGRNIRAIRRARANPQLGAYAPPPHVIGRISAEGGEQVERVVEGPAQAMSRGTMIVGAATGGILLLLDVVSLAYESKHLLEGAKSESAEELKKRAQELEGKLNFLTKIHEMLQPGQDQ
T3 sequence (O95236 whole entry, canonical isoform): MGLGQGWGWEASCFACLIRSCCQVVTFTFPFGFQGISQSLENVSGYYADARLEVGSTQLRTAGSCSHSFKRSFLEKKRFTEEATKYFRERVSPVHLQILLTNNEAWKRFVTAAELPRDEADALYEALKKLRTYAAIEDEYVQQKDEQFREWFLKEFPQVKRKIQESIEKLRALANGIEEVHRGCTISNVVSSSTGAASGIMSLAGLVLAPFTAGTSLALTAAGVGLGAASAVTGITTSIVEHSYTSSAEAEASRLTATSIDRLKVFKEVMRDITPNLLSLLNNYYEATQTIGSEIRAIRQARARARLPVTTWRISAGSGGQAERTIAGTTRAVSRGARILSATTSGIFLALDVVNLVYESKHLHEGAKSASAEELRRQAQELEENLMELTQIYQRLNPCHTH
T5 sequence (Q9BQE5 other isoform, or with tags, fused parts or gaps): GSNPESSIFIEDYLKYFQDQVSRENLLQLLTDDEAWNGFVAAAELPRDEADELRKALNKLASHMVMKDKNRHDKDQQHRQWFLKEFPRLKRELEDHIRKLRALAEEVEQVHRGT
T1 sequence (Q9BPW4 22-351): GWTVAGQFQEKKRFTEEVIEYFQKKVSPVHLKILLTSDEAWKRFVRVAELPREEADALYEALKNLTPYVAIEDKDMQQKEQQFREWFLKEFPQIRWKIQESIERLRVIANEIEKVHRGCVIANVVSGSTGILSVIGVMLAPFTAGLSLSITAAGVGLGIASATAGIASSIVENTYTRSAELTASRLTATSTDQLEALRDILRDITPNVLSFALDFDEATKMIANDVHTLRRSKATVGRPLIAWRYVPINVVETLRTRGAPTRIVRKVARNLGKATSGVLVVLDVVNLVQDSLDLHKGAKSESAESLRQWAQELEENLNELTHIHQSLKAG

binding result (ApoL4-Myc): binds | binding result [1]: binds | binding result (ApoL3-Myc-Flag): binds | Kd [2]: 0.86 nM
B1: Ab6D12 (antibody, V domains shown)
VH: EVMLVESGGGLVRPGGSLKLSCTASGFTFSRCAMSWVRQTPEKRLEWVSAISRDSTYTYYSDSVKGRFTVSRDNAKNTLYLQMSSLRSEDTAMYYCARQIDDYYVDALDYWGQGTSVTVSS
VL: DVQITQSPSYLAASPGETITINCRASKIISKYLAWYQEKPGKTIKLLIYSGFTLQSGIPSRFSGSGSGTDFTLTISSLEPEDFAMYYCQQHNEYPLTFGAGTKLEIK
notes: mouse VH, as the variable part of the heavy chain of m1; mouse heavy chain constant region; mouse VL, as the variable part of the light chain of m1; mouse light chain constant region; Mouse anti-human ApoL1 antibody; also called 3.6D12; murine Ab6D12

binding result [3]: binds
B2: Fab6D12 (Fab, V domains shown)
VH: B1 VH
VL: B1 VL
notes: Chimeric Fab: mouse variable domains on human constant domains; also called Fab of Ab6D12; 3.6D12 Fab; source: E. coli strain 64B4, secreted into the periplasm, purified (protein G, SP Sepharose, Superdex 75)

Kd (Bcl-w): 24.2 nM | Kd (Bfl-1): 0.31 nM
B3: Bid BH3 peptide (25-mer, residues 77-101) (peptide)
peptide: ESQEDIIRNIARHLAQVGDSMDRSI
notes: Bid, BH3-only motif, residues 77-101; source: synthetic peptide (ABclonal, >95% purity)

Kd (Bcl-w): 65.2 nM | Kd (Bfl-1): 1430 nM
B4: Bid (A87I) peptide (peptide)
peptide: ESQEDIIRNIIRHLAQVGDSMDRSI
notes: source: synthetic peptide (ABclonal, >95% purity)

binding result [1]: binds | binding result (ApoL3-Myc-Flag): binds | Kd [2]: 1.56 nM
B5: Ab3B6 (antibody, V domains shown)
VH: QVQLQQSGAELARPGASVKLSCKASGYTFTSHWMQWLKQRPGQGLEWIGAIYPGDGDTKFTQKFKDKATLTADKSSTTAYMQLSSLASEDSAVYYCARENLYGYYFDYWGQGTTLTVSS
VL: QAVVTQESALTTSPGETVTLTCRSSTGAVTSGNFANWVQEKPDHLFTGLIGGADNRAPGVPARFSGSLIGDKAALIITGAQTEDEAIYFCALWYSDHWVFGGGTKLTVL
notes: mouse VH, as the variable part of the heavy chain of m2; mouse heavy chain constant region; mouse VL, as the variable part of the light chain of m2; mouse light chain constant region; Mouse anti-human ApoL1 antibody; also called 3.3B6

binding result [4]: binds | stoichiometry N [5]: 1
B6: Fab7D6 (Fab, V domains shown)
VH: QIQLVQSGPDLKKPGETVKISCRTSGYAFTNYGVNWVKQAPGKGLKWMGWINTNTGQTTYAEEFRGRFAISLETSASTAFLTISNLKNEDSATYFCARLIYDGDYISSDFWGQGTTLTVSS
VL: DIQMTQSPDSLSASVGETVTITCGASENIYGALNWYQRKQGKSPQLLIYGATNLADGMSSRFSGSRSGRQYSLKISSLHPDDVATYYCQNALSMPYTFGGGTNLETK
notes: Chimeric Fab: mouse variable domains on human constant domains; also called Fab of Ab7D6; 3.7D6 Fab; source: E. coli strain 64B4, secreted into the periplasm, purified (protein G, SP Sepharose, Superdex 75)

Kd [2]: 1.63 nM
B7: Ab7D6 (antibody, V domains shown)
VH: B6 VH
VL: B6 VL
notes: mouse VH, as the variable part of the heavy chain of m3; mouse heavy chain constant region; mouse VL, as the variable part of the light chain of m3; mouse light chain constant region; Mouse anti-human ApoL1 antibody; also called 3.7D6

Kd (Bcl-w): 23.1 nM | Kd (Bfl-1): 18.8 nM
B8: Bim (A149I) peptide (peptide)
peptide: DMRPEIWIIQELRRIGDEFNAYYAR
notes: also called Bim (A149A) (as printed in the methods); source: synthetic peptide (ABclonal, >95% purity)
